Measurements taken from article PMC6450878.

What was measured:
[1] = biological target: CEA3-ITGB1 C.ow (CEACAM3 fused to the cytoplasmic domain of Capsaspora owczarzaki integrin β homologue ITGB1 C.ow) (human | Capsaspora owczarzaki); assay: OPTIC (Opa protein triggered integrin clustering; recruitment of a fluorescent protein to the clustered chimeric receptor, confocal microscopy); 293T cells co-transfected with CEA3-ΔCT or a CEA3-ITGB chimera and the protein of interest fused to eGFP or mCherry, seeded on poly-L-lysine; infected 1 h with Pacific Blue-stained Opa52-expressing N. gonorrhoeae at MOI 20; fixed, stained for CEACAM3; R = maximum fluorescence at the clustered chimera / mean fluorescence of the cell; R > 2 defined as positive recruitment; n = 60 cells
[2] = biological target: CEA3-ITGB2 C.ow (CEACAM3 fused to the cytoplasmic domain of Capsaspora owczarzaki integrin β homologue ITGB2 C.ow) (human | Capsaspora owczarzaki); assay: as above
[3] = biological target: CEACAM3-integrin β1 fusion construct (CEA3-ITGB1) (human) (UniProt P05556); assay: as above
[4] = biological target: CEACAM3-integrin β2 fusion construct (CEA3-ITGB2) (human) (UniProt P05107); assay: as above
[5] = biological target: CEACAM3-integrin β3 fusion construct (CEA3-ITGB3) (human) (UniProt P05106); assay: as above
[6] = biological target: CEACAM3-integrin β5 fusion construct (CEA3-ITGB5) (human) (UniProt P18084); assay: as above
CEA3-ITGB1 Y783A (human) = CEA3-ITGB1 Y783A (human) (UniProt P05556); assay: as above
[7] = biological target: eGFP-talin1 (human talin1) (UniProt Q9Y490); assay: OPTIC assay (microscopy of GFP-talin1 recruitment to clustered CEACAM3-integrin fusion proteins in 293T cells); details: 293 T cells co-transfected with CEACAM3-integrin fusion constructs and GFP-talin1, infected for 1 h with Pacific Blue-labeled Ngo, read off a plot
Chain of UniProt Q9Y490 (Q9Y490 whole entry, looked up, the tested form may be a part): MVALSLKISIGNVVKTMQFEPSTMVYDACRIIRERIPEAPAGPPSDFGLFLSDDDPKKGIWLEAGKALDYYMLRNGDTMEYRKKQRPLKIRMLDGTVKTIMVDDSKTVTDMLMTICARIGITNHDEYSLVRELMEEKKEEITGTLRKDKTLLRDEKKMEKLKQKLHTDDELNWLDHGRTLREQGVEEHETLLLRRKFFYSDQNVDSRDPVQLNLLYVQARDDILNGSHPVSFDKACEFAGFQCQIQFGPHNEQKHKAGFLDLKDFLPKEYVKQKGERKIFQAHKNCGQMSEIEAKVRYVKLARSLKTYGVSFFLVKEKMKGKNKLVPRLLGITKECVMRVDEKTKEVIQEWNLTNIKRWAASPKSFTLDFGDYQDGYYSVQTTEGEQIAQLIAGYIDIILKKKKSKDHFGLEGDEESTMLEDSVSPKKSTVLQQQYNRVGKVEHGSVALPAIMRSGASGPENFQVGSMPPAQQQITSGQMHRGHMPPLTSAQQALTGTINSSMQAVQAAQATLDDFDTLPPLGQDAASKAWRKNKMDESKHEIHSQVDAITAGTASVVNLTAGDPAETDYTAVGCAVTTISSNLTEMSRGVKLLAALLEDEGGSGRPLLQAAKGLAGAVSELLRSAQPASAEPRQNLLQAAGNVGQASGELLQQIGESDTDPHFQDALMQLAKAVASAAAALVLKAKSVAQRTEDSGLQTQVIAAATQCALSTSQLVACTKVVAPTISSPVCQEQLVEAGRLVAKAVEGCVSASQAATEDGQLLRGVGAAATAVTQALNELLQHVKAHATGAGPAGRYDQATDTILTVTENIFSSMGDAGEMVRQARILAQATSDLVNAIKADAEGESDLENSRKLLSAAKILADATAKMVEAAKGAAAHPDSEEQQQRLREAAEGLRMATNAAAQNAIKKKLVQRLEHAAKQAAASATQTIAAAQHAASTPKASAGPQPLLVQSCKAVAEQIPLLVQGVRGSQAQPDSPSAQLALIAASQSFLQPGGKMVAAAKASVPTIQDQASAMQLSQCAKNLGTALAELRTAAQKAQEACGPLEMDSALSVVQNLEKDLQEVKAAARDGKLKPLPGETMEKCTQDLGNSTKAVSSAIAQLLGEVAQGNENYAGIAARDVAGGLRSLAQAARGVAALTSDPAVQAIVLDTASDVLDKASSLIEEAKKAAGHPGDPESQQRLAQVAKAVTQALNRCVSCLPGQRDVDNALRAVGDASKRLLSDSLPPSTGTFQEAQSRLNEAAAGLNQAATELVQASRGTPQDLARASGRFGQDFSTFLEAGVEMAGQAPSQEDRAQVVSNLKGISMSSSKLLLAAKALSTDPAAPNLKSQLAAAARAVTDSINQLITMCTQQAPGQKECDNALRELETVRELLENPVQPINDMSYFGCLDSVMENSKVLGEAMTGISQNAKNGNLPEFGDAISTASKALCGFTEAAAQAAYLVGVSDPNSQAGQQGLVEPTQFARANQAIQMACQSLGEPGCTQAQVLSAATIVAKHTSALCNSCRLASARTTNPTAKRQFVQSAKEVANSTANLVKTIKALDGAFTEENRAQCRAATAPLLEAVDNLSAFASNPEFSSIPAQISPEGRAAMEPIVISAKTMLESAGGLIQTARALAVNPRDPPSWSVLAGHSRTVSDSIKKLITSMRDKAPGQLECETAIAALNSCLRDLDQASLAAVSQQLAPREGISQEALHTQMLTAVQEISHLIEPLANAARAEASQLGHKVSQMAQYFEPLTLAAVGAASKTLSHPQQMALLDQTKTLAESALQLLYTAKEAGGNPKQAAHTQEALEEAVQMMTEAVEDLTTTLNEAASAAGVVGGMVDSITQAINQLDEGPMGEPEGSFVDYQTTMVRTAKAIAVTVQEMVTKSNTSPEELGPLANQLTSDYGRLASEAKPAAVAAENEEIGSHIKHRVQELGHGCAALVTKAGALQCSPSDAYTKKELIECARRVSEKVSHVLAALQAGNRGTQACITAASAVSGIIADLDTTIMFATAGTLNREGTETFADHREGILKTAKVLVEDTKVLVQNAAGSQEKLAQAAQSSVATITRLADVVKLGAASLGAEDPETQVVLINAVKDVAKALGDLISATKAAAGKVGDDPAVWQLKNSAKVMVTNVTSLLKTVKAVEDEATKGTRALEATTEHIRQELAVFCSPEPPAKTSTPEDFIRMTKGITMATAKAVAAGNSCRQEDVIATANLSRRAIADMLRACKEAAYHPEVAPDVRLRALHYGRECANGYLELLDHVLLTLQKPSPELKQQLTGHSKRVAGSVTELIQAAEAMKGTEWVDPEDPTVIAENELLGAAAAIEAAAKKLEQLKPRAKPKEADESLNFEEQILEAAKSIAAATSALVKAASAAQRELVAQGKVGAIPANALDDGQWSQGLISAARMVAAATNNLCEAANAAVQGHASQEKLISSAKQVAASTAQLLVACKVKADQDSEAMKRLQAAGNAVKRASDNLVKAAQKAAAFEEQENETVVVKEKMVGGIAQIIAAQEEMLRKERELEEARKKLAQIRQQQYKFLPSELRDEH

| percent of cells with R >= 2 [3] [%] | recruitment ratio R (mean) [3] | recruitment ratio R (mean) [5] | Substance | further results |
| --- | --- | --- | --- | --- |
| 85 | 3.41 | 3.78 | eGFP-talin1 (human talin1) (from UniProt Q9Y490 1-2541) (natural protein) | recruitment ratio R [1]: > 2; recruitment ratio R [2]: > 2; percent of cells with R >= 2 [4]: 85%; percent of cells with R >= 2 [5]: 85%; percent of cells with R >= 2 [6]: 62%; recruitment ratio R (mean) [6]: 2.1 |
| – | 2.92 | 2.57 | eGFP-tagged paxillin (from UniProt P49023 1-591) (natural protein) | – |
| – | 3.9 | 2.4 | eGFP-tagged human kindlin-2 (from UniProt Q96AC1 1-680) (natural protein) | – |
| 85 | 2.84 | – | mCherry-talin1 (human talin1) (from UniProt Q9Y490 1-2541) (natural protein) | percent of cells with R >= 2 (CEA3-ITGB1 Y783A (human)): 17%; recruitment ratio R (mean) (CEA3-ITGB1 Y783A (human)): 1.8 |
| – | – | – | CEA3-ITGB2 C.ow (CEACAM3 fused to the cytoplasmic domain of Capsaspora owczarzaki integrin β homologue ITGB2 C.ow) F1038A | other: talin recruitment ratio R ([7]; n = 60 cells from three …, parent: est. 2.6): 2.2; other: percentage of cells with talin recruitment R ≥ 2 ([7]; parent: est. 64): 59% |
| – | 1.5 | – | mCherry | – |
